Assay [1] deals with rabbit Fc-tagged recombinant extracellular human ICOS (human) (UniProt Q9Y6W8). Description: SPR, Biacore T200, 1:1 kinetics model, rabbit Fc-tagged extracellular human ICOS. (In general: SPR reads the build-up and loss of mass on a sensor chip optically.)
A further assay addresses FcyR. Description: cell-based or functional assay.
The target in assay [2] is rabbit Fc-tagged recombinant extracellular human ICOS (human) (UniProt Q9Y6W8). Description: SPR, Biacore; reference is human ICOS-L binding to dimeric human ICOS (FIG. 15B).

Some results are limits rather than exact numbers.

Chain of UniProt Q9Y6W8 (Q9Y6W8 21-140): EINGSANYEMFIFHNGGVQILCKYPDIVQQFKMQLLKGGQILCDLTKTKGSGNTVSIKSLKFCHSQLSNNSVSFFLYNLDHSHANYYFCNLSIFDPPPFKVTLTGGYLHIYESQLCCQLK

B1: H2L5 IgG4PE (antibody, V domains shown)
VH: QVQLVQSGAEVKKPGSSVKVSCKASGYTFTDYAMHWVRQAPGQGLEWMGLISIYSDHTNYNQKFQGRVTITADKSTSTAYMELSSLRSEDTAVYYCGRNNYGNYGWYFDVWGQGTTVTVSS
VL: EIVLTQSPATLSLSPGERATLSCSASSSVSYMHWYQQKPGQAPRLLIYDTSKLASGIPARFSGSGSGTDYTLTISSLEPEDFAVYYCFQGSGYPYTFGQGTKLEIK
For B1, the Kd (as a rule, the constant that tells how readily two partners part at equilibrium) in assay [1] is 1.34 nM. In the assay with FcyR, this molecule gave an IFN-γ induction in activated human PBMC assay of over 2 fold and an IFN-γ induction in modified mixed lymphocyte reaction of over 2 fold. Further, the fold higher affinity than the ICOS-L/ICOS interaction in assay [2] was 17 fold.

Source of the values: patent publication WO2018225033A1.
